The values that follow come from PMC5358978, “Nuclear export receptor CRM1 recognizes diverse conformations in nuclear export signals” (eLife, 2017).

This assay concerns the target human CRM1 (HsCRM1), wild type (human) (UniProt O14980). Put plainly: differential bleaching; competition titration of MBP-NES to FITC-PKI NES and CRM1 with excess RanGTP; triplicate; fitted with a set of direct titrations.

Sequence of human CRM1 (HsCRM1), wild type (human) (O14980 whole entry): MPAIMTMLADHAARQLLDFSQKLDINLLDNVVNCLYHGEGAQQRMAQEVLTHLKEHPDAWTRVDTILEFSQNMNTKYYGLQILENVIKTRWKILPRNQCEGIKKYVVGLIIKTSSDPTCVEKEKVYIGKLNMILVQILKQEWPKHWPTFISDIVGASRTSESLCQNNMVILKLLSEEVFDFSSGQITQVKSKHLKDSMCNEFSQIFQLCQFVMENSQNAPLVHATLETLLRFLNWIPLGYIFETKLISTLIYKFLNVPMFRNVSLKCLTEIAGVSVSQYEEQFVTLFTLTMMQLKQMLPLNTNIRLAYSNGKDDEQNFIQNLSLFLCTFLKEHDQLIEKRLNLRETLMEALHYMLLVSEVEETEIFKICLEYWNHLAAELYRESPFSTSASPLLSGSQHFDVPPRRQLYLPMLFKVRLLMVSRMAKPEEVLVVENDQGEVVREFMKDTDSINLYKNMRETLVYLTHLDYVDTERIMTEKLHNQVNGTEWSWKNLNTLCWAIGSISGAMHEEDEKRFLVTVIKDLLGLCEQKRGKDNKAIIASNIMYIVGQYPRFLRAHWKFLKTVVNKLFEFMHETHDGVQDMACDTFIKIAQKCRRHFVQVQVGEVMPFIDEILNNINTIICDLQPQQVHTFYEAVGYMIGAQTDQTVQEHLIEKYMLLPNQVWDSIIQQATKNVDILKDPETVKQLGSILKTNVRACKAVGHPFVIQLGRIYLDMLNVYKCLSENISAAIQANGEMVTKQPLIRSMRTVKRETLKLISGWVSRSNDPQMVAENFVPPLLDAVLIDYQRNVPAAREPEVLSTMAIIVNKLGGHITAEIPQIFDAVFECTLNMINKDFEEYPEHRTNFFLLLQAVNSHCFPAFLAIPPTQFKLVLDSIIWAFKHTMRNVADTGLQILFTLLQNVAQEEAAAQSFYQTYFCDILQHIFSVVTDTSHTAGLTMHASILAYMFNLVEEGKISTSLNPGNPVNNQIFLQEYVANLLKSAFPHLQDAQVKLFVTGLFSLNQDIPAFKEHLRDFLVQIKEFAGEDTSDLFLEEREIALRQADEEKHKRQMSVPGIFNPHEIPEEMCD

MBP-mDia2 NES(Φ0A) mutant (peptide) gave a Kd of 9.1 µM.

As a reminder, the Kd is the free concentration of one partner at which half of the binding sites on the other are occupied at equilibrium, for simple one-to-one binding.
